Measurements taken from IntAct's records for PubMed 19851283.

B1: Transcription factor HFR1 (Arabidopsis thaliana (Mouse-ear cress)), Q9FE22 (parent)
chain: MSNNQAFMELGWRNDVGSLAVKDQGMMSERARSDEDRLINGLKWGYGYFDHDQTDNYLQIVPEIHKEVENAKEDLLVVVPDEHSETDDHHHIKDFSERSDHRFYLRNKHENPKKRRIQVLSSDDESEEFTREVPSVTRKGSKRRRRDEKMSNKMRKLQQLVPNCHKTDKVSVLDKTIEYMKNLQLQLQMMSTVGVNPYFLPATLGFGMHNHMLTAMASAHGLNPANHMMPSPLIPALNWPLPPFTNISFPHSSSQSLFLTTSSPASSPQSLHGLVPYFPSFLDFSSHAMRRL
partner: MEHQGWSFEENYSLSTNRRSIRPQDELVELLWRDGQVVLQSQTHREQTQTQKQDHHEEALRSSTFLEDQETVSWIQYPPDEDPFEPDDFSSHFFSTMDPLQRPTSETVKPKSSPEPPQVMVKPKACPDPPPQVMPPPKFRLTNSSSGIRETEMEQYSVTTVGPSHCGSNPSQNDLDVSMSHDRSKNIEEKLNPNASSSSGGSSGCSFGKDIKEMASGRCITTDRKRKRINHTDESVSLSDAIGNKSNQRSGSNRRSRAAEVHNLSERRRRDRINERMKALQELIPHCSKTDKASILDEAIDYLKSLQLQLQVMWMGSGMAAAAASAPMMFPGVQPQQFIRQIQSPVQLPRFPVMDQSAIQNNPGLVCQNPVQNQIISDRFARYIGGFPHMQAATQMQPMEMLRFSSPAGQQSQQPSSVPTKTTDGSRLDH
B2: Transcription factor HFR1 (Arabidopsis thaliana (Mouse-ear cress)), Q9FE22 (parent)
chain: B1 chain
partner: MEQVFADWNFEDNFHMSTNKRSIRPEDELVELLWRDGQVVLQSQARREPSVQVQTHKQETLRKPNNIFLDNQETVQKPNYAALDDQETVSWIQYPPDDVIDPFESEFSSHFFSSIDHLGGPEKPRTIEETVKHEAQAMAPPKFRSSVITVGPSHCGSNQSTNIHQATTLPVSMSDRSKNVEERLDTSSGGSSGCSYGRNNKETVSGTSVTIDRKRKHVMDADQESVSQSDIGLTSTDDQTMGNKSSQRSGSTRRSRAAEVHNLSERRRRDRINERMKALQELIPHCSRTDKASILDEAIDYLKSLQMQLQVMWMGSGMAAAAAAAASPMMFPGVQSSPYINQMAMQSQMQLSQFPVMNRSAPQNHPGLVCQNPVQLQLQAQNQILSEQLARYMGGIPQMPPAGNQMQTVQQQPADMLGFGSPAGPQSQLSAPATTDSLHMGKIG

Variants of: B1
Settings: with pif4_arath PIF4, Q8W2F3

effect of a mutation on the interaction	Variant
disrupting interaction	MSNNQAFMELGWRNDVGSLAVKDQGMMSERARSDEDRLINGLKWGYGYFDHDQTDNYLQIVPEIHKEVENAKEDLLVVVPDEHSETDDHHHIKDFSERSDHRFYLRNKHENPKKRRIQVLSSDDESEEFTREVPSVTRKGSKRRRRDEKMSNKMRKLQQLVPNCHKTDKVSDLDKTIEYMKNLQLQLQMMSTVGVNPYFLPATLGFGMHNHMLTAMASAHGLNPANHMMPSPLIPALNWPLPPFTNISFPHSSSQSLFLTTSSPASSPQSLHGLVPYFPSFLDFSSHAMRRL [V172D]
disrupting interaction	MSNNQAFMELGWRNDVGSLAVKDQGMMSERARSDEDRLINGLKWGYGYFDHDQTDNYLQIVPEIHKEVENAKEDLLVVVPDEHSETDDHHHIKDFSERSDHRFYLRNKHENPKKRRIQVLSSDDESEEFTREVPSVTRKGSKRRRRDEKMSNKMRKLQQLVPNCHKTDKVSVEDKTIEYMKNLQLQLQMMSTVGVNPYFLPATLGFGMHNHMLTAMASAHGLNPANHMMPSPLIPALNWPLPPFTNISFPHSSSQSLFLTTSSPASSPQSLHGLVPYFPSFLDFSSHAMRRL [L173E]

Variants of: B2
Settings: with pif5_arath PIF5, Q84LH8

effect of a mutation on the interaction	Variant
disrupting interaction	MSNNQAFMELGWRNDVGSLAVKDQGMMSERARSDEDRLINGLKWGYGYFDHDQTDNYLQIVPEIHKEVENAKEDLLVVVPDEHSETDDHHHIKDFSERSDHRFYLRNKHENPKKRRIQVLSSDDESEEFTREVPSVTRKGSKRRRRDEKMSNKMRKLQQLVPNCHKTDKVSDLDKTIEYMKNLQLQLQMMSTVGVNPYFLPATLGFGMHNHMLTAMASAHGLNPANHMMPSPLIPALNWPLPPFTNISFPHSSSQSLFLTTSSPASSPQSLHGLVPYFPSFLDFSSHAMRRL [V172D]
disrupting interaction	MSNNQAFMELGWRNDVGSLAVKDQGMMSERARSDEDRLINGLKWGYGYFDHDQTDNYLQIVPEIHKEVENAKEDLLVVVPDEHSETDDHHHIKDFSERSDHRFYLRNKHENPKKRRIQVLSSDDESEEFTREVPSVTRKGSKRRRRDEKMSNKMRKLQQLVPNCHKTDKVSVEDKTIEYMKNLQLQLQMMSTVGVNPYFLPATLGFGMHNHMLTAMASAHGLNPANHMMPSPLIPALNWPLPPFTNISFPHSSSQSLFLTTSSPASSPQSLHGLVPYFPSFLDFSSHAMRRL [L173E]
